For one substance, intracellular cAMP in human fibroblast-like synoviocytes results are on record in patent publication US20240024505A1.

The target of the experiment is mRXFP1 (UniProt Q9HBX9). The experiment in a line: cell-based or functional assay.
Sequence of mRXFP1 (Q9HBX9 whole entry): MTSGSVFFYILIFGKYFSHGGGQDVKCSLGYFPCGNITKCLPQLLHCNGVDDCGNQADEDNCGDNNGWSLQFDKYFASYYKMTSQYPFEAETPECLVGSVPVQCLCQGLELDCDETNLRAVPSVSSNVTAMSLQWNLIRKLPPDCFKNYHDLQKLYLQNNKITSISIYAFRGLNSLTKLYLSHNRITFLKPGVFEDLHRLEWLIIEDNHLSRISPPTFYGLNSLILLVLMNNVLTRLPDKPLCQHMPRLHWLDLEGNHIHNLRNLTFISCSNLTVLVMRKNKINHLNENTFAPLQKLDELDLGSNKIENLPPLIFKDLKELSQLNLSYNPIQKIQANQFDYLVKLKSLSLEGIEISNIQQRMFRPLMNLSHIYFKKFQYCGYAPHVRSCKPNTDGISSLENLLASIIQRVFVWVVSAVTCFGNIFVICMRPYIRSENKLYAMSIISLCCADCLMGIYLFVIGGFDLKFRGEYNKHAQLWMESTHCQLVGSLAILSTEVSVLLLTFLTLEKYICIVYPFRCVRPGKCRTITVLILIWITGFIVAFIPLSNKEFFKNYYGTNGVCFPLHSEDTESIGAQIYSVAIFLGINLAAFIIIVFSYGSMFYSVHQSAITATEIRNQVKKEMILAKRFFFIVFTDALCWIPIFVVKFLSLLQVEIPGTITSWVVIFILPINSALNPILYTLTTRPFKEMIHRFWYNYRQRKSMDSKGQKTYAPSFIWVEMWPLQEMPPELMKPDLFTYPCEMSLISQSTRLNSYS

As to “recombinant RLX (serelaxin) (from UniProt P04090 25-53; P04090 162-185) (ligand)”, the intracellular cAMP in human fibroblast-like synoviocytes was above 15 fold.
